Measurements from article PMC8058060, “The transcriptional activator of the bfp operon in EPEC (PerA) interacts with the RNA polymerase alpha subunit” (Scientific Reports, 2021).

Target: T1, His6-RpoA (alpha subunit of the RNA polymerase) (UniProt P0A7Z4 1-329)
T1 construct: RNA polymerase alpha subunit RpoA; also called His-tagged RpoA; α-subunit of the RNAP; source: E. coli BL21 (DE3) containing pET28-RpoA, purified as described previously
Experiment: pull-down; 50 µg each of purified MBP or MBP-PerA and His6-RpoA in interaction buffer (2X: 100 mM NaH2PO4, 600 mM NaCl, 40 mM imidazol, 0.5% NP-40, 20% glycerol, pH 8.0), 30 min on ice, then 50 µl amylose resin 2 h at ~4 °C; Western blot with anti-MBP antibody or anti-His6-HRP probe
Conditions: both partners purified

T1 sequence (P0A7Z4 whole entry): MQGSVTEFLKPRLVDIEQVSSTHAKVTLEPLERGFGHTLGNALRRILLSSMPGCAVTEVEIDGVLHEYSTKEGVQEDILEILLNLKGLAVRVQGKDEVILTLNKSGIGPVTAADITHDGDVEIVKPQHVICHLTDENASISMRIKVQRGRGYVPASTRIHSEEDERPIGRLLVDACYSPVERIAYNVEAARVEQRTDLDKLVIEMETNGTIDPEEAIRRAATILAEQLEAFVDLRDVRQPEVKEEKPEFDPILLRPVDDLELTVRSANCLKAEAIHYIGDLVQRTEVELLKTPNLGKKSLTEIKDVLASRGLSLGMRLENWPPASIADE

B1: MBP-PerA fusion (natural protein)
chain: MLTSKKEMQSSENKQEENLALLLTNYISYQNIVIFTGGNQFKIRNKKEFTEYTIESNSLFFLAKNTHWDMEIVGIDNSNPYRKIIIDDALIKLLHSISSDDSCYVKKKIFTANLNEMQLNIVSNIITDIKYSGNNKKIFKILYLLSFFNDYNDIVNVILSASSKSIVDRVIKVIELDISKNWKLGDVSSSMFMSDSCLRKQLNKENLTFKKIMLDIKMKHASLFLRTTDKNIDEISCLVGFNSTSYFIKVFKEYYNTTPKKYNGVYSITQGTLP
notes: 274 residues; pMalC2xa derivative; also called BfpT; MBP-PerA chimera; source: expressed from pMALT2; over-expressed in EPEC E2348/69 ΔperA with 0.3 mM IPTG, in soluble lysate, for the co-purification
**Q.** Does B1 bind?
**A.** binds
